Results as given in patent US20210324359A1, “USE OF GRAM-NEGATIVE LYSIN-ANTIMICROBIAL PEPTIDE (AMP) POLYPEPTIDE CONSTRUCTS IN TREATING ENDOCARDITIS” (priority 2020, published 2021).
Like-named read-outs stand apart in the source and are kept apart here.

Columns and labels:
[1] = tested on: biofilms formed by P. aeruginosa strain ATCC 17646; conditions: strain ATCC 17646 biofilm
Experimental: Biofilms are then washed and treated with e.g., a 2-fold dilution series of the lysin in TSBg at e.g., 37° C. for 24 hours. After treatment, wells are washed, air-dried at e.g., 37° C. and stained with e.g., 0.05% crystal violet for 10 minutes.

P. aeruginosa = assay: MIC, modified CLSI broth microdilution in CAA medium without or with […] human serum (Table 4); assay type: cell-based, Pseudomonas aeruginosa; conditions: for CAA MIC: CAA medium, no human serum; for CAA/HuS MIC: CAA supplemented with […] human serum; as to CAA/HuS MIC: CAA supplemented with 2.5% human serum
From the text: 2015. […] Clinical and Laboratory Standards Institute, Wayne, Pa.

[2] = tested on: Pseudomonas aeruginosa strain CFS-1292 (meropenem resistant); conditions: for MIC in 25% CAA: strain CFS-1292, no added cations; for Fold Increase (MIC) in presence of cations: CFS-1292
Experimental: The activity of selected GN lysins and constructs in the presence of divalent cations was evaluated, and the impact of divalent cations at physiological concentrations was examined in the MIC assay format.

[3] = tested on: P. aeruginosa strain WC-453; assay: Time-kill assay in HEPES or CAA with 25% human serum (Tables 7, 8); assay type: cell-based, Pseudomonas aeruginosa; conditions: for bactericidal activity (CFU decrease of 3-Log10, 3 hours after the addition of lysin): 10 μg/mL, enumerated lysins in CAA/HuS, general statement for HEPES and CAA/HuS; for CAA/HuS (Log10 CFU/mL), 1 hr / CAA/HuS (Log10 CFU/mL), 3 hr: CAA + 25% human serum, lysin 10 μg/ml, WC-453
Experimental: Exponential phase bacteria were then pelleted and resuspended in 1/5 culture volume of 25 mM HEPES, pH 7.4 before a final adjustment to an optical density corresponding to a McFarland value of 0.5. […] All treatments were incubated at 37° C. with aeration. At time points before the addition of lysin (or buffer control) and at 1 hour and 3 hours intervals thereafter, culture samples were removed for quantitative plating on CAA agar plates.

[4] = tested on: P. aeruginosa isolate CFS-1292; assay: MIC in CAA supplemented with a range of […] concentrations (Table 10); assay type: cell-based, Pseudomonas aeruginosa

B1: GN357: lysin-AMP construct: TAGGTAGG linker and RR12Whydro C-terminal to GN316 lysin (SEQ ID NO: 38) (protein)
chain: MAILKIGSKGLEVKNLQTSLNKIGFNLVADGIFGKATDNAVRAVQAGAGLVVDGIAGPKTMYAIRNAGESHQDHLTEADLIDAARELSVDLASIKAVNQVESRGTGFTKSGKIKTLFERHIMYKKLNAKFGQAKANALAQLYPTLVNAKAGGYTGGDAELERLHGAIAIDKDCAYESASYGLFQIMGFNCVICGYDNAEEMFNDFLTGERAQLMAFVKFIKADANLWKALKDKNWAEFARRYNGPAYAQNQYDTKLAAAYKSFSTAGGTAGGRRLIRLWLRLLR
MBEC [1]: 0.5 µg/mL | CAA MIC (P. aeruginosa): 16 mg/mL | CAA/HuS MIC (P. aeruginosa): 0.25 mg/mL | MIC in 25% CAA [2]: 4 µg/mL | bactericidal activity (CFU decrease of 3-Log10, 3 hours after the addition of lysin) [3]: bactericidal activity | CAA/HuS (Log10 CFU/mL), 1 hr [3]: 5.0 Log10 CFU/mL | CAA/HuS (Log10 CFU/mL), 3 hr [3]: <3.7 Log10 CFU/mL

B2: GN431: lysin obtained from Dickeya phage phiD3 (SEQ ID NO: 64) (protein)
chain: MAILKLGNRGTEVKALQDSLNKIGFTLVADGIFGKATENAVKTVQAGAGLVIDGIVGPKTSYAIRNAGEAHQDHLTEADLIEAANQLGVDLASVKAVNQVESRGTGFTKSGKIKTLFERHIMYKKLMAKFGQARANAMGQMYPTLVSPVAGGYTGGDAELDRLHAAINIDEDCAYESASYGLFQIMGFNCQVCGYANAKEMFNDFLTGERAHLMAFVKFIKADAKLWQALKDKNWAEFARRYNGPAYTKNQYDTKLAAAYNSFN
modifications: Dickeya phage phiD3
MBEC [1]: 1 µg/mL | CAA MIC (P. aeruginosa): 8 mg/mL | CAA/HuS MIC (P. aeruginosa): 0.0625 mg/mL | MIC in 25% CAA [2]: 2 µg/mL | bactericidal activity (CFU decrease of 3-Log10, 3 hours after the addition of lysin) [3]: bactericidal activity | CAA/HuS (Log10 CFU/mL), 1 hr [3]: 5.8 Log10 CFU/mL | CAA/HuS (Log10 CFU/mL), 3 hr [3]: <3.7 Log10 CFU/mL

B3: GN329: lysin, SEQ ID NO: 26 (protein)
chain: MITDREYQQAAEMLGVDVPAIKAVTKVEAPVGGFQPTGEPTILYERHQMYRQLQAKGLPTEGHPPDLVNKVAGGYGKYSEQHAKLARAVKIDRDSALESCSWGMFQIMGYHWKLMGYPTLQAFVNAMYASEGAQMDAFCRFIKAQPTTHAALKAHDWAKFARLYNGPGYAKNKYDVKLEKAYAEASG
modifications: Pseudomonas phage KPP10
MBEC [1]: 0.5 µg/mL | CAA MIC (P. aeruginosa): 4 mg/mL | CAA/HuS MIC (P. aeruginosa): 0.25 mg/mL | MIC in 25% CAA [2]: 4 µg/mL | bactericidal activity (CFU decrease of 3-Log10, 3 hours after the addition of lysin) [3]: bactericidal activity | CAA/HuS (Log10 CFU/mL), 1 hr [3]: 4.4 Log10 CFU/mL | CAA/HuS (Log10 CFU/mL), 3 hr [3]: <3.7 Log10 CFU/mL

B4: GN333: lysin obtained from Delftia sp. (SEQ ID NO: 28) (protein, listed as Delftia sp.)
chain: MALTEQDFQSAADDLGVDVASVKAVTKVESRGSGFLLSGVPKILFERHWMFKLLKRKLGRDPEINDVCNPKAGGYLGGQAEHERLDKAVKMDRDCALQSASWGLFQIMGFHWEALGYASVQAFVNAQYASEGSQLNTFVRFIKTNPAIHKALKSKDWAEFARRYNGPDYKKNNYDVKLAEAYQSFK
MBEC [1]: 1 µg/mL | CAA MIC (P. aeruginosa): 8 mg/mL | CAA/HuS MIC (P. aeruginosa): 0.06 mg/mL | MIC in 25% CAA [2]: 8 µg/mL | bactericidal activity (CFU decrease of 3-Log10, 3 hours after the addition of lysin) [3]: bactericidal activity | CAA/HuS (Log10 CFU/mL), 1 hr [3]: 4.9 Log10 CFU/mL | CAA/HuS (Log10 CFU/mL), 3 hr [3]: <3.7 Log10 CFU/mL

B5: GN156: GPRRPRRPGRRAPV introduced at the N terminus of GN4 (SEQ ID NO: 126) (protein)
chain: GPRRPRRPGRRAPVRTSQRGIDLIKSFEGLRLSAYQDSVGVWTIGYGTTRGVTRYMTITVEQAERMLSNDIQRFEPELDRLAKVPLNQNQWDALMSFVYNLGAANLASSTLLKLLNKGDYQGAADQFPRWVNAGGKRLDGLVKRRAAERALFLEPLS
fold increase in MIC with SURVANTA ([4]; 0.09% SURVANTA): 1 fold | fold increase in MIC with SURVANTA ([4]; 0.19% SURVANTA): 1 fold | fold increase in MIC with SURVANTA ([4]; 1.56% SURVANTA): 2 fold | fold increase in MIC with SURVANTA ([4]; 3.15% SURVANTA): 2 fold | Fold Increase (MIC) in presence of cations ([2]; 25% CAA + […] CaCl2 (high)): 1 fold | Fold Increase (MIC) in presence of cations ([2]; 25% CAA + […] CaCl2 (low)): 2 fold | Fold Increase (MIC) in presence of cations ([2]; 25% CAA + […] CaCl2 (medium)): 2 fold | Fold Increase (MIC) in presence of cations ([2]; 25% CAA + […] CaCl2 and […] MgCl2): 2 fold | Fold Increase (MIC) in presence of cations ([2]; 25% CAA + […] MgCl2 (high)): 2 fold | Fold Increase (MIC) in presence of cations ([2]; 25% CAA + […] MgCl2 (low)): 2 fold | Fold Increase (MIC) in presence of cations ([2]; 25% CAA + […] MgCl2 (medium)): 2 fold | MIC in 25% CAA [2]: 2 µg/mL
